According to patent US20150010495A1 (GLYCOTOPE, published 2015):

Target: T1, […]n, n = 5 (100-mer), non-glycosylated (human)
T1 construct: non-glycosylated MUC1 peptide with five tandem repeats in series
Assay: peptide ELISA, OD 492 nm; limit of the class, member by Table 2; reference: 20-mer

B1: HMFG-1 (antibody, V domains shown)
VH: QVQLVQSGAEVKKPGASVKVSCKASGYTFSAYWIEWVRQAPGKGLEWVGEILPGSNNSRYNEKFKGRVTVTRDTSTNTAYMELSSLRSEDTAVYYCARSYDFAWFAYWGQGTLVTVSS
VL: DIQMTQSPSSLSASVGDRVTITCKSSQSLLYSSNQKIYLAWYQQKPGKAPKLLIYWASTRESGVPSRFSGSGSGTDFTFTISSLQPEDIATYYCQQYYRYPRTFGQGTKVEIKR
ratio of the optical density 100-mer/20-mer: > 3
